From the domain aggregation screens of Martell et al. (2025)

Test: soluble fraction after stress (log2 fold change); higher = more stays soluble; pooled small domains, quantitative proteomics
Details: stress: 75 degC
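Further: 20 min heating vs room temperature control held 20 min.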

Sequence | soluble fraction (log2)
HMVKLDDLTGQDKATAEATITNSGLKYSEQQEFSDEVEAGKVIRTDPGAGTSSLKAGDTVTVYVSRGPEN | 0.215
HMVKNYYEILEVDKKASPEVIEKAYKTLAKKYHPDLQEAENNGQYEEKMKEINEAYSVLSDEFKRRTYDEQ | 0.123
HMVKSYEVPDVSNLTVLEAEAKLQEMGFEIDEEQKEISSSDIESGRVVKTSPQAGSKRKEGAIITLYVSSG | 0.65
HMVKTANVAYSEFLKLVESDNISDVSIVGRTITGHLDDGTKFSTYTPPNDPSLIDKLTRKNVIIKSAPE | 0.0585
HMVKVEVKPNVLQWVIKRMDNFDRLKDQFPNIDKWINQESQPTLKQLEKLAKMTAVPLGYFFLPNPPEEK | -1.12
HMVLELRIGQIVRGVLLQLVGEREGIVSVGGVPVRARLEAEIPLGRGVMLQVQPGSDANNILLKPV | -3.01
HMVLENLKKFIDSKGISVSAFEKSIGMSNNSFRKSLNSGGHIGSDKLENILKIYPELNPVWLLQGEGEML | -0.589
HMVLGSSVAMGQKIGDSDLTWVEVPLSSAFDRFLSEPEWRGSSDLVAARLLEAGVFLTEDDVVE | 0.0533
HMVLLGAAIRELRIQKGITIEELAEMSGLSTGLISKIERDLGNPSISSLRKISRALGVPTAFFFA | -3.28
HMVLSKGAKELLDFIMREGEVTTSKVVQKFGGSAQNASAKLKKLYATGLILGSKAVAESGGLEFVYKA | 0.256
HMVLSVRERMGIVLEKVNTETFTDFKELFTVEEGRAGAIVSLLAILQLMKDSLIQLVQNEPNGPIYVKAA | -0.879
HMVLTSFHDNFPKTGTTYTVRSGDTISGIATKFGSTRDWIQNANEISHPKYLQVGRTLFIPH | -0.302
HMVMATPHNTAKAGDIAKTVIMPGDPLRAKYIADNYLDNAVQFNVVRNIYGYTGVYRGTDISVMASGM | 0.212
HMVMETLAERINTALQTKGLSVNALARRVGVSYPAMRKITKGETLNPKFLFEIAEALGVSVEWLKTGEGSP | -1.34
HMVMNKQEFLKILRDTLQSQLSSRETENHVEYYRTYIEEQMREGKTEIEILDVLGDPRLIARTILET | -0.193
HMVMSTDAELILEYLAKHQGEMEITDKSSPELIMDTFNMSKGAFKRALGSLYKSKTVVIESTKVLLNT | -1.44
HMVNDQSIYASEGYVHIRSGKPVSLRIYTILGALYRHEERLVGDHVIALPRGLYIVVLNHTAKKIMV | -0.657
HMVNEALDEFFVGLKNLYESATGKPAIAGAHFDGEPKTDFEKLMYLGYQIIRPAQAYPSALKAYERAIARS | -0.145
HMVNHEERKRLIAEATWRTISHVGIEQASVRTIAKEAGLSLGALRYYFTTQEELLRFSMQLVQERV | -0.0767
HMVNIEAEVGRRLRQLRARRGLSLRALADLSGLNVNTLSLIENSKTSPSVSTLQQLARSLQVPITTFFESD | -1.36
HMVNKQERTYTILRDRIHSGSFAPLERLNIDALARELGVSPIPVREALRRLEAEGWVRFTPNVGAVVSP | -0.509
HMVNLLVTPLEELEINFRTLRALRKYNIYQLEDLLRFIKYNGFDALRIVPGMGIKSTEQLYEKLKDKNI | -0.112
HMVNTVEVQGNTIYSAEEIRSASGIQKGDNLFTLNKEAAAGSIKASLPYVETVSIIRFLPDKIVIEVKE | -0.57

Sequence | soluble fraction (log2)
HMVNVLKNSTVIDLVKNNLSDALIISLIRRAKVDFSLMTDDVIELSGKGVSPAVIMEMRQAMIRQASEIQN | -0.318
HMVNVTEAIDLENGTGKLSGTFNHEPKSAEEIIFLLKIDTNKWKLSQYWNKQMGDHWRVSALISQI | -2.82
HMVPAMEVALEDARRAIEQVVSGERTSVQLSSQEAMIRKLQHQMAKDANLFSRSSGVEPQRRVTIYTN | 0.0142
HMVPHQPRVWTNTAGKTITAAFVRFNAAGRKVSLKLEKGRQVELPLASLSGNDVDWIKEHVPEAMSNQE | -1.06
HMVPISGADFEKLSDYILQKAGAGSIQVKELLAGLKGMHEKNLWKAIDYLLAEEKIRIDKGGNISVK | -0.322
HMVPQAVQDIKAYLASGALPYIGPATAKKIVAMFGSDALDVIAEHPEQLTAIRGLNEEKANAIHQEFRRQF | -0.259
HMVPSSHNIAQKVKQIKINDLWLDVRERYIYLKNLYLSHPLEKDHPSFIVYVEAVNQIYNQYF | -0.0707
HMVQDDLRELEGISTELLAKLADAGITNRDDLADLAIDELVAITGQSEDDAKALIMKAREHWFAGDA | 0.0246
HMVQIIQLQGTDKRLYELVAPLVMNPEILKQNYNYPFRTSEDFVWFVAVDKKKVIGFIPVEEKKKEYVI | -0.108
HMVRKGEINFDQLSVRARNALRNMNILFEKEILKLTEYDLKSIPNLGVKTTNELLSYIKRLQTNQKEE | -1.47
HMVRRSERLHALTESLRRSGNRGRTAEQLATEFEVSVRTIKRDLVALEASGLPLWSRPGPGGGYGLLS | -0.953
HMVRTIKILGIKHNINLYYKNVKVPTMNVKNQTLEIILPNKYKKFQEEQILKVLTQKLYDKIAETEIEKIK | -1.11
HMVSAEQNTLEFIKENVKEDVIEDDIEFYKSLLEDWSVEVDNSSKLLDPGNNNSLLAVIAYSIENEL | 0.232
HMVSDAWITGKVKSQLLADDVTPGMKIDVDTEDRIVSLKGTVPSLTARNEAIRIASHTKGVRTVDADELIV | 0.17
HMVSFAEQASDWLAHFDRLGDVGPDTTLTDLTARDAEFSAWVNEGIHHRVAFLETLAAWHRTER | -0.627
HMVSGLEILKIQVQDHPSDWRWALLLARTHYENGNREAAVRTLRPLQRLHPDRLEVMTLWALLA | -0.194
HMVSGSPTVDILMQRGLEYQQQENLEAARDAFDRAINLKPDYAEAWNRRAVLFFNEGKYDEAIADLETAIT | 0.136
HMVSKEELANSIYENKTADELGNIVLRKGKYSGEMLRTIYVKDIGYLEWHSKQSYEYSNAVKWYLKKLE | -1.37
HMVSLEEIINDLTSRIQTAVKMRFSDFVQNRKERVGVIVSFLGMLELVKQGIIDIKQEGHFADIEMETA | -0.347
HMVSLSENQKIVLESLNTAMSARELMEILNLSDISHFRRNILNPLLLEGLIVRTKPDKPKSSKQKYIKANF | -1.69
HMVSPEVEMLRAAVETMSERQKQVYELHYLRGFNVKETAAILGMSSPTVTAHKKRIMEIIKKFFE | -1.46
HMVSPFQQQIADKVHNEIIAAKFNYDNATNENERLLAQLQAKKARELANQYGLDMSSYGADTTAERS | 0.61
HMVSSAEQQARDKESGMILVQEAGGPDKARALVEKMRQDIRNPALDGTRRQMLRGHVARIELALAELETG | -0.0254

Sequence | soluble fraction (log2)
HMVSVGDIFAGRIISNENGHLLLQLLDGSKISAQTVTDLKYNIGDVLNLEIIEEKQGLIFVRQT | -2.05
HMVSVLGRRIKELRLQNSMTQMQLAKKLGYKGNSLVAGWELGKNYPSVSSIKRLSEIFDTDLMKYVG | -2.53
HMVTDTGAIEKVIDEVIAANPKQVQEIADQRAAGHEKPKTLGWLVGQIMKASGGKVNPAAVNEILLKKLG | 0.0887
HMVTFDEISQSLVRDVAARRSLSVQTLHAMVDRYNAGSSINAVANQYGIDRLKLREILIELGVHVAT | -2.4
HMVTLQEVKQYLRIDFEEEDPLLLSLLATAKQQVMNVGRMDEAQLSEHEDTARTAILYAVSYLYENRN | -1.82
HMVTPAQQARDTLLGALVGLARATTSEPKTDDTDVVLNAGLRLAAQPDAPEERLQRMLAIVQTEKHRV | 0.138
HMVTVNAFGKSGPEPAAMTKEALAKGADEVRVIVDSPTAAASVRDFLIGAGLRVQLQDDEGQLIVVGEKK | 0.318
HMVVDEQRIQTLVSAAEQNSSDPVPRVTLGNLYFDAEQFEEAVKWYEQALALDPRNVNVSTDLGVGYYY | 0.113
HMVVKLTQEQDRFIKTFNDKSLAFYYISSWGWGSFLRNGIGGVYEGDKTPFTLDEKEKMLNAIINGYEVI | -2.02
HMVVKSPLEMAFDKFREMRKKIRKPMTERAEELIWKELSKLAGEDSDLKIEILEQSIRNGWQDVYAVK | -0.623
HMVVLPGEVVALKIIQTGSSKDQGVGYLEDGTMVVVDGAKNSIGKTIEIQISRSHQTVAGRMLFGIAMS | -2.72
HMVVQTELVRISITSLSGEDIRRLVQIKVVGATIEPFEGGGFLITGTAEQIAKAKDFLNSMSTEF | -2.42
HMVVRKHDRYYTPEHRKLLMDTYERTNKYPTKQDMSELAKIIGVLPIKILWWYTHRRRQDRRKGEESSSP | 0.0496
HMVVTMEKIVVNDGGIRIDTYLADKLNISRSKVAKMLENNILVNNVKVKPSYKVTNNDIIEVEEYV | -1.86
HMVVVLPGETIKIDLIREGKDKQALGYLEDGTMIVVDNAKHLIGKNVEIEIDNVLPKEAGRVIFASLHGA | -0.388
HMVVVMNADAEADEIKRVKWNLEQMLFRTQVIYGVKRIVIGAIGDQREVDLSEIEQMPKVDKIVRISK | -2.24
HMVVVPDVKGLKIEEAAEFFKNNNLHYNVIDSVFSKDVEPGAIVELSPLAGSKVKEGRIVFITVNALTS | -1.12
HMVVVVELTENEKAVQDVLTKNEGSLEISDLKTKLELSGKQWDKALKGLAKHGITQVAKVDGVVTVSL | -0.381
HMVWMIEKDQSVILVNKLERIQVEALGKALENGNFGDRIRVINNKSGQKLLGIVESEKKIQIISKI | -2.92
HMVYLPGEEIPLKIIQEGKESGQGVGYLEDGTMVVVENGRRYLNQEVLVQVTKILQTNAGRLIFAVP | -2.6
HMVYLPSSIKNIPTKYGEMMVANFKMDELQANSKNGWVSMVISERREPSEKGATHYAYVNTY | 0.484
HMVYNQYILTQSVRLREEPGISGRVIRLLETGTTVELVDTVVVNKDDYDWVWVKLSDGAVGWIIKSAIDI | -1.57
HMWDEMKDQKLVEALLLLREDERKLIYQHVFEERTFDDISRINGLPPYKVKGIYYYAIRKIRKWMG | -2.26
